What was measured:
[1] = biological target: human PSMA on cells (LNCaP, C4-2B, LNCaP AR, 22RV1 prostate tumor cell lines; human prostate tissue) (human, UniProt Q04609 1-750); assay: cell-based or functional assay
[2] = biological target: T1, human CD3 epsilon on cells (primary human T cells; mononuclear cells of human tissue) (human, UniProt P07766 23-207); assay: tissue cross-reactivity staining of cryosections of normal human tissues
T1 construct: Part of the TCR/CD3 complex on T cells; also called CD3ε; cell-surface CD3ε
Protocol: A GLP cross-reactivity study was conducted in cryosections of normal human tissues with the study drug and its anti-PSMA parental (bivalent) antibody (positive control). No unanticipated tissue cross-reactivity of the study drug was observed. Membrane staining of epithelial cells and staining of extracellular material in the prostate with both the study drug and the anti-PSMA parental antibody was anticipated due to PSMA expression in these tissues. Staining of mononuclear cells with the study drug only was expected based on the expression of CD3ε on T cells.

human PSMA on cells (LNCaP, C4-2B, LNCaP AR, 22RV1 prostate tumor cell lines; human prostate tissue), sequence (Q04609 whole entry): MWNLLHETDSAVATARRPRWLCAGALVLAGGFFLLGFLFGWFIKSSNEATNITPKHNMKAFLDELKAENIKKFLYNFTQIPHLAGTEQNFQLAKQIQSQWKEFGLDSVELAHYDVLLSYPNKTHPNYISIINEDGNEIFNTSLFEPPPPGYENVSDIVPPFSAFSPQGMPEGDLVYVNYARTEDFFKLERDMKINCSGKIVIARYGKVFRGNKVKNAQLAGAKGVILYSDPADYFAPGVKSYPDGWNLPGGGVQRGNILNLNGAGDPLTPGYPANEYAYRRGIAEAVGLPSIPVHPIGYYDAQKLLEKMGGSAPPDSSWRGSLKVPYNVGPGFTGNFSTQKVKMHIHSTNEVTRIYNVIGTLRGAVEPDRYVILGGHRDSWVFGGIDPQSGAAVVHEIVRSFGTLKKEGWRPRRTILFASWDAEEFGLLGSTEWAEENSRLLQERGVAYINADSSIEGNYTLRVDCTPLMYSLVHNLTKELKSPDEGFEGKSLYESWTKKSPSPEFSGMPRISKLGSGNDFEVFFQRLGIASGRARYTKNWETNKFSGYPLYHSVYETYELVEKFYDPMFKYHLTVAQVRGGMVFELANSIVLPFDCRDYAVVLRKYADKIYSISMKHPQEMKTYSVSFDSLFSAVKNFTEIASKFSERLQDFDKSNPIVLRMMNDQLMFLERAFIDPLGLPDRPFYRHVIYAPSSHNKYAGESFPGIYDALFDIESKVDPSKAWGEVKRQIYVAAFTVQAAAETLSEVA
T1 sequence (P07766 23-207 limits assumed): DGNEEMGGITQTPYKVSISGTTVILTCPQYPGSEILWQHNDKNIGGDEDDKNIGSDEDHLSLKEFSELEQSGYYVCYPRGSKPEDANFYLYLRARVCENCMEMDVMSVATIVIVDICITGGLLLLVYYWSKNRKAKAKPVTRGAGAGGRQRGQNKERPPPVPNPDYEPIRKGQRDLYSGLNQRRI

B1: PS3B27 PSMAxCD3 bispecific antibody (PSMB127 x CD3B219) (bispecific antibody, human IgG4 S228P, kappa, lambda, F234A L235A)
heavy 1: not shown
light 1: not shown
heavy 2: EVQLVESGGGLVQPGGSLRLSCAASGFTFNTYAMNWVRQAPGKGLEWVARIRSKYNNYATYYAASVKGRFTISRDDSKNSLYLQMNSLKTEDTAVYYCARHGNFGNSYVSWFAYWGQGTLVTVSSASTKGPSVFPLAPCSRSTSESTAALGCLVKDYFPEPVTVSWNSGALTSGVHTFPAVLQSSGLYSLSSVVTVPSSSLGTKTYTCNVDHKPSNTKVDKRVESKYGPPCPPCPAPEAAGGPSVFLFPPKPKDTLMISRTPEVTCVVVDVSQEDPEVQFNWYVDGVEVHNAKTKPREEQFNSTYRVVSVLTVLHQDWLNGKEYKCKVSNKGLPSSIEKTISKAKGQPREPQVYTLPPSQEEMTKNQVSLTCLVKGFYPSDIAVEWESNGQPENNYKTTPPVLDSDGSFLLYSKLTVDKSRWQEGNVFSCSVMHEALHNHYTQKSLSLSLGK
light 2: QTVVTQEPSLTVSPGGTVTLTCRSSTGAVTTSNYANWVQQKPGQAPRGLIGGTNKRAPGTPARFSGSLLGGKAALTLSGVQPEDEAEYYCALWYSNLWVFGGGTKLTVLGQPKAAPSVTLFPPSSEELQANKATLVCLISDFYPGAVTVAWKADSSPVKAGVETTTPSKQSNNKYAASSYLSLTPEQWKSHRSYSCQVTHEGSTVEKTVAPTECS
notes: also called the study drug
[1]
  CD25 expression on T cells co-cultured with C4-2B cells, median EC50: 0.06 nM
  T cell dependent cytotoxicity of C4-2B cells, median EC50: 0.08 nM
[2]
  binding result: binds
